Among the data in publication PMC10570326 are stoichiometry N values, retold here.

Usually stoichiometry N stands for a count of units in the complex or per binding partner.

The experiment deals with OmpK36 (UniProt Q48473). In words: crystal structure; laser-shaped cylindrical crystal, S-SAD at a wavelength of 4.13 Å, resolution limited to 2.7 Å.

As to “OmpK36 (from UniProt Q48473 22-363) (natural protein)”, the stoichiometry N was determined as 3.
